Experimental data as given in patent US20150307569, “HETEROGENEOUS NUCLEAR RIBONUCLEOPROTEIN A2* (HNRNP A2*) AND NUCLEIC ACID ENCODING THE SAME” (Institute of Zoology, Chinese Academy of Sciences, published 2015).

Columns and labels:
[1] = biological target: T1, hnRNP A2* (hnRNP A2 isoform lacking exons 7-9) (Rattus norvegicus); test: EMSA; minimal binding site; conditions: tags: His6 (pET-28b, E. coli BL21(DE3)); label: 5' 32P
Method: (§1) 80 nM oligonucleotides having 5′ ends labeled with [γ-³²P] ATP (³²P-labeled oligonucleotides) were incubated with 400 nM recombinant hnRNP A2* at 4° C. for 30 min in a binding buffer [10 mM Tris(hydroxymethyl)metyl aminomethane (Tris) (pH 8.0), 1 mM ethylenediaminetetraacetic acid (EDTA), and 150 mM KCl] and resolved on a 8% (wt/vol) native PAGE gel. The gel was then visualized by phosphoimaging using a Typhoon PhosphorImager.
(§2) The cDNA encoding hnRNP A2* was cloned and expressed in Escherichia coli, producing a recombinant protein with the expected molecular mass (FIG. 2A). The exons 7-9 coded the glycine-rich domain (GRD) and provided additional DNA/RNA binding sites in addition to two RNA recognition sites (RRM). […] This is in contrast to hnRNP which has a broad DNA-binding specificity with the consensus sequence N(A,C,T)(C,T)(A,G)G(C,G,T)(A,T)NNN. […] The binding specificity of hnRNP A2* was further verified by constructing 10 mutant variants of the MBS, each carrying a single mutation to cytosine at each nucleotide. All the mutations within the MBS abolished the bindings except the mutations of thymines in the vicinity of GGG (FIG. 2E).

[2] = biological target: T1, hnRNP A2* (hnRNP A2 isoform lacking …); test: EMSA; per text: all MBS mutations abolish except thymines near GGG; conditions: tags: His6 (pET-28b, E. coli BL21(DE3)); label: 5' 32P
Method: as §1, §2

[3] = biological target: T1, hnRNP A2* (hnRNP A2 isoform lacking …); test: EMSA; thymine next to G-tract tolerated; conditions: tags: His6 (pET-28b, E. coli BL21(DE3)); label: 5' 32P
Method: as §1, §2

[4] = biological target: T1, hnRNP A2* (hnRNP A2 isoform lacking …); test: competition; very low or no binding; conditions: tags: His6 (pET-28b, E. coli BL21(DE3))
Method: as §1, §2

[5] = biological target: 28-kDa telomeric DNA-binding protein (hnRNP A2*), rat liver nuclear matrix (Rattus norvegicus); test: Southwestern blot; conditions: label: 5' 32P
[6] = biological target: T1, hnRNP A2* (hnRNP A2 isoform lacking …); test: EMSA; 10 mM Tris pH 8.0, 1 mM EDTA, 150 mM KCl, 4 C; 400 nM protein, 80 nM DNA; conditions: tags: His6 (pET-28b, E. coli BL21(DE3)); label: 5' 32P
Method: as §1, §2

[7] = biological target: T1, hnRNP A2* (hnRNP A2 isoform lacking …); test: EMSA; 150 mM KCl, 4 C; conditions: tags: His6 (pET-28b, E. coli BL21(DE3)); label: 5' 32P
Method: as §1, §2

[8] = biological target: T1, hnRNP A2* (hnRNP A2 isoform lacking …); test: EMSA; G-quadruplex substrate complex; stimulates telomerase; conditions: tags: His6 (pET-28b, E. coli BL21(DE3)); G4
Method: as §1

[9] = biological target: T1, hnRNP A2* (hnRNP A2 isoform lacking …); test: EMSA; per text; conditions: tags: His6 (pET-28b, E. coli BL21(DE3)); label: 5' 32P
Method: as §1, §2

T1 sequence (chain, as listed by the source): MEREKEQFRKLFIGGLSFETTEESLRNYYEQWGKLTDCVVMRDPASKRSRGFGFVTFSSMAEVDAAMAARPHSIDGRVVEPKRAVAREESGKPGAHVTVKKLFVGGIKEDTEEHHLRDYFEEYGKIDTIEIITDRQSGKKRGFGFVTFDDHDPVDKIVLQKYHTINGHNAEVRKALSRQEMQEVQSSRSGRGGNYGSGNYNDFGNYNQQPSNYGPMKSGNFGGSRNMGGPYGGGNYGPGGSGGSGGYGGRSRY
Chain of 28-kDa telomeric DNA-binding protein (hnRNP A2*), rat liver nuclear matrix (Rattus norvegicus) (chain, as listed by the source): as above

TAGGGTTAGG (ssDNA) [MBS]: binds [1].

TCGGGTTAGGGTTAG (ssDNA, [none]) [15-mer A2C]: no binding [2].

TAGGGCTAGGGTTAG (ssDNA, [none]) [15-mer T6C]: binds [3].

TTAGAGTTAGAGTTAGAG (ssDNA) [(TTAGAG)3]: no binding [4].

TTAGGGTTAGGGTTAGGG (ssDNA) [(TTAGGG)3]: binds [5]; binds [6].

TAGGGTTAGGGTTAG (ssDNA) [MBS-containing 15-mer W]: binds [7].

GGGCTAGGGCTAGGGCTAGGGAGTT (structured_DNA) [TSG4]: binds [8].

TAAGGGTAAGGGTAAGGG (ssDNA) [(TAAGGG)3]: no binding [4].

TAGGGTTAGCGTTAG (ssDNA, [none]) [15-mer G10C]: no binding [9].

TAGGGTTCGGGTTAG (ssDNA, [none]) [15-mer A8C]: no binding [9].

TAGGCTTAGGGTTAG (ssDNA, [none]) [15-mer G5C]: no binding [9].

TTGGGGTTGGGGTTGGGG (ssDNA) [(TTGGGG)3]: no binding [4].

B1: double-stranded (TTAGGG)3 (dsDNA)
DNA 1: TTAGGGTTAGGGTTAGGG
DNA 2: CCCTAACCCTAACCCTAA
B1: no binding [4].

TACGGTTAGGGTTAG (ssDNA, [none]) [15-mer G3C]: no binding [9].

TAGCGTTAGGGTTAG (ssDNA, [none]) [15-mer G4C]: no binding [9].

TAGGGTTACGGTTAG (ssDNA, [none]) [15-mer G9C]: no binding [9].
